Results taken from patent US6770446B1, “Cell systems having specific interaction of peptide binding pairs” (Wyeth, priority 1994, dated 2004).
Where “and” joins values, the source holds several entries; their conditions need not be identical. Equal values may be shown once.

Legend:
KDR = KDR (Homo sapiens, UniProt P35968)
[1] = molecular target: RGS-Z fused to the Gal4 activation domain (RGS-Z-pACT2) (yeast; human) (UniProt O76081); assay: cell-based or functional assay
[2] = molecular target: T1, KChIP1 fused to the Gal4 activation domain (hKChIP1-pACT2) (yeast; human, UniProt Q9NZI2-2 1-216, limits assumed); assay: cell-based or functional assay
T1 sequence (looked up): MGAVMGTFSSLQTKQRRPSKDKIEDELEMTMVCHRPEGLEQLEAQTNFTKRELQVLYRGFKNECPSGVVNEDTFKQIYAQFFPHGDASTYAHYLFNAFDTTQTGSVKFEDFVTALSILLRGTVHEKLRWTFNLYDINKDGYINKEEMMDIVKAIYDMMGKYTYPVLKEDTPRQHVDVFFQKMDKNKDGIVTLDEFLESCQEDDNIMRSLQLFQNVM

[3] = molecular target: T2, PRL and PRLR fusion proteins (Sus scrofa, UniProt Q6JTA8, M232L/S231T); assay: Yeast two-hybrid competition assay: free peptide co-expressed with PRL and PRLR fusion proteins, growth on selective medium; type: cell-based, porcine; conditions: free peptide expressed from pCUP in a strain with PRL and PRLR fusions
T2 construct: flank the extracellular domain of the PRLR, encoding amino acids 1-229; expressed in transfected cells; host or cells: Saccharomyces cerevisiae (URA- derivative of Y190; strains CY786/CY787)
T2 sequence (Q6JTA8 with tags, fused parts or gaps): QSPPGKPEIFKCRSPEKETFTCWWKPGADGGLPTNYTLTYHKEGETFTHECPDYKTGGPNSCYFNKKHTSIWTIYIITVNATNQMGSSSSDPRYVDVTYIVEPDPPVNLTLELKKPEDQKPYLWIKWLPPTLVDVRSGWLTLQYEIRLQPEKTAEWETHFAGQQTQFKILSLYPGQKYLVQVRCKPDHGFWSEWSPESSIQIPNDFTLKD
Excerpt: To expand and validate this technology, a similar system was developed using the peptide hormone prolactin (PRL) and its receptor. Prolactin is structurally related to GH and the prolactin receptor (PRLR) is also a member of the cytokine receptor superfamily. […] Mature porcine PRL is generated as a fusion to the GAL4 activation domain. Oligonucleotides are designed to pig PRL (obtained from GenBank; […] No. X14068), and used to generate the mature pig PRL protein hormone from a pig pituitary lambda gt11 library, using standard PCR methods. A 31 base 5' oligonucleotide includes an EcoRI site ([NT] ID NO: 7) and corresponds to sequences encoding amino acids 1-7. A 30 base 3' oligonucleotide contains an EcoRI site ([NT] ID NO: 8) and corresponds to a region of cDNA 3' to the endogenous termination codon. A 600 bp fragment is obtained, ligated into vector pCR 11, and confirmed by restriction enzyme digest and sequence analysis. The PRL cDNA is cloned into pACT-II via the EcoRI site. The extracellular domain of the porcine PRL receptor (PRLR) is generated as a fusion to GAL4 DNA binding domain. Oligonucleotides are designed based on sequence of the mouse PRLR (Davis and Linzer, 1989) A 31 base 5' oligonucleotide contains a […] ID NO: 9) while the 31 base 3' oligonucleotide contains a termination codon followed by a […] ID NO: 10). […]

[4] = molecular target: T3, GH and GHR fusion proteins (Rattus norvegicus, UniProt P16310); assay: Yeast two-hybrid competition assay: free peptide co-expressed with GH and GHR fusion proteins, growth on selective medium; type: cell-based; set-up: key to Growth: +: scored for cell growth, indicated by a plus; conditions: for Effect of co-expressed free peptide on GH-GHR-dependent cell growth on selective medium: free peptide expressed from pCUP in a strain with GH and GHR fusions
T3 construct: encoding amino acids 1-247 of the rat GHR (Baumbach et al., 1989); expressed in transfected cells; host or cells: Saccharomyces cerevisiae CY770 (URA- derivative of Y190)
T3 sequence (P16310 19-265): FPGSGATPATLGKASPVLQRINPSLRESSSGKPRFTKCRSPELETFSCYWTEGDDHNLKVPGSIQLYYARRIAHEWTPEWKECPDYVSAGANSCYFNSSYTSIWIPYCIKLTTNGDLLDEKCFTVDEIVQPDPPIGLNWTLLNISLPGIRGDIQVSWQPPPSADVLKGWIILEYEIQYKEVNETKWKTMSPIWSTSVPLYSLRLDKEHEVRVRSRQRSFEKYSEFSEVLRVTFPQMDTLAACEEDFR

[5] = molecular target: T4, extracellular domain of rat growth hormone receptor (GHR, amino acids 1-247) fused to the Gal4 DNA binding … (yeast; rat, UniProt P04386 1-147; P16310 19-265); assay: yeast two-hybrid, HIS3 growth on selective medium (strain CY722)
T4 construct: Expressed inside yeast (two-hybrid); also called GHR fusion; GHR-GAL4 fusion; not shown: polylinker residues of pAS2; not described

[6] = molecular target: T4, extracellular domain of rat growth …; assay: in vivo competition in yeast two-hybrid, free GH from pCUP (strain CY781)

Chain of KDR (P35968 20-764 limits assumed): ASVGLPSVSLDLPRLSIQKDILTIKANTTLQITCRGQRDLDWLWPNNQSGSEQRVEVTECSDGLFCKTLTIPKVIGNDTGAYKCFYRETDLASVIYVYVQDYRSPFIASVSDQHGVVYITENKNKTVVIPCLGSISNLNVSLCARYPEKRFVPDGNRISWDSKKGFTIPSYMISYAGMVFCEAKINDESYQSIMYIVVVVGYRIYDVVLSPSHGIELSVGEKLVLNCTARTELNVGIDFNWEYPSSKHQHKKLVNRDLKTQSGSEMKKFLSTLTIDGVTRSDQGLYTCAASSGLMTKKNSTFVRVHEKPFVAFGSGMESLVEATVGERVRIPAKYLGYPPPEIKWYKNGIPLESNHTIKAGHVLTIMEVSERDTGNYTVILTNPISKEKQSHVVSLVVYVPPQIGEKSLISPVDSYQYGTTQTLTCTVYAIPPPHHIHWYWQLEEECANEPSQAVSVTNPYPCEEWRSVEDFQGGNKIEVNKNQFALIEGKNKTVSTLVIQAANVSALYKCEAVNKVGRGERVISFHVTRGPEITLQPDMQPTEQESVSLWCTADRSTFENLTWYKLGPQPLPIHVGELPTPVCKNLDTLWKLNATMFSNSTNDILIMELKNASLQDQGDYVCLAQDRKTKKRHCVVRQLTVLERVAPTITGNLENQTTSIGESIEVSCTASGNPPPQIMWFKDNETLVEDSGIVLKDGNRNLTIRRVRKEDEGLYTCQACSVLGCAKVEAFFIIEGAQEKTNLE
Chain of KDR (P35968 20-764 limits assumed): as above

Q: For VEGF, which “Growth on selective media of strain expressing two KDR receptor fusion proteins plus free ligand” value (KDR) is on record?
A: substantial growth on selective media

Q: What does the source list for “constitutively active G-alphaZ Q205L fused to the Gal4 DNA binding domain (Q205L/GaZ-pGBKT7) (from UniProt P04386 1-147; P19086 1-355)”?
A: firefly luciferase activity, ybn66L in a 75:25 mix with ybn77L (OD 0.25 and 0.15) (luminescence units) [1]: 950000; increase in Renilla luciferase activity, strain ybn70L [1]: 40 fold; induction of luciferase activity, interaction strain (ybn66L) against control strains [1]: 5 fold and 10 fold

B1: N-terminus of the potassium channel 4.3 (hKv4.3N) fused to the Gal4 DNA binding domain (hKv4.3N-pGBT9) (other, yeast;human, UniProt P04386 1-147, looked up)
chain: MKLLSSIEQACDICRLKKLKCSKEKPKCAKCLKNNWECRYSPKTKRSPLTRAHLTEVESRLERLEQLFLLIFPREDLDMILKMDSLQDIKALLTGLFVQDNVNKDAVTDRLASVETDMPLTLRQHRISATSSSEESSNKGQRQLTVSMAAGVAAWLPFARAAAIGWMPVANCPMPLAPADKNKRQDELIVLNVSGRRFQTWRTTLERYPDTLLGSTEKEFFFNEDTKEYFFDRDPEVFRCVLNFYRTGKLHYPRYECISAYDDELAFYGILPEIIGDCCYEEYKDRKRENAERLMDDNDSENNQESMPSLSFRQTMWRAFENPHTST
Q: How did the “increase in Renilla luciferase activity, strain ybn77L” value [2] turn out when B1 was run?
A: 25 fold

Q: And the “increase in luciferase activity (Gal1/10-luciferase reporter), both fusions against one fusion plus empty vector” value [2]?
A: 30 fold

Q: What about the “increase in luciferase activity (low copy CEN Gal-luciferase reporter Kp132), test strain against negative control strain” value [2] of the same molecule?
A: 100 fold

B2: PRL: mature porcine prolactin expressed as free peptide from pCUP plasmid (protein)
chain: LPICPSGAVNCQVSLRDLFDRAVILSHYIHNLSSEMFNEFDKRYAQGRGFITKAINSCHTSSLSTPEDKEQAQQIHHEVLLNLILRVLRSWNDPLYHLVTEVRGMQEAPDAILSRAIEIEEQNKRLLEGMEKIVGQVHPGIKENEVYSVWSGLPSLQMADEDTRLFAFYNLLHCLRRDSHKIDNYLKLLKCRIIYDSNC
modifications: left off: large carriers; small tags and cut ends
notes: mature porcine prolactin expressed as free peptide from pCUP plasmid
Q: How did the “Effect of co-expressed free peptide on PRL-PRLR-dependent cell growth on selective medium” value [3] turn out when B2 was run?
A: growth is abrogated

Q: And the “Effect of co-expressed free peptide on GH-GHR-dependent cell growth on selective medium” value [4]?
A: grows on selective medium

Q: What about the Growth ([4]; strain with GH and GHR fusions plus free peptide expressed from pCUP, selective medium, 3 to 5 days at 30 C) of the same molecule?
A: +

B3: porcine growth hormone (GH) fused to the Gal4 activation domain (GH in pACT-II) (ligand, UniProt P01248 27-216, looked up, not shown: large carriers; small tags and cut ends)
chain: FPAMPLSSLFANAVLRAQHLHQLAADTYKEFERAYIPEGQRYSIQNAQAAFCFSETIPAPTGKDEAQQRSDVELLRFSLLLIQSWLGPVQFLSRVFTNSLVFGTSDRVYEKLKDLEEGIQALMRELEDGSPRAGQILKQTYDKFDTNLRSDDALLKNYGLLSCFKKDLHKAETYLRVMKCRRFVESSCAF
notes: mature; Expressed inside yeast (two-hybrid); also called GH-Gal4 fusion protein; GH fusion
Q: Does B3 bind [5]?
A: binds

B4: free porcine growth hormone expressed from pCUP (GH-pCUP) (ligand, UniProt P01248 27-216, looked up)
chain: FPAMPLSSLFANAVLRAQHLHQLAADTYKEFERAYIPEGQRYSIQNAQAAFCFSETIPAPTGKDEAQQRSDVELLRFSLLLIQSWLGPVQFLSRVFTNSLVFGTSDRVYEKLKDLEEGIQALMRELEDGSPRAGQILKQTYDKFDTNLRSDDALLKNYGLLSCFKKDLHKAETYLRVMKCRRFVESSCAF
notes: mature; Non-fusion GH; also called free GH; free ligand
Q: Does B4 bind [6]?
A: binds

B5: GH: mature porcine growth hormone expressed as free ligand from pCUP plasmid (protein, UniProt P01248 27-216, looked up)
Somatotropin: FPAMPLSSLFANAVLRAQHLHQLAADTYKEFERAYIPEGQRYSIQNAQAAFCFSETIPAPTGKDEAQQRSDVELLRFSLLLIQSWLGPVQFLSRVFTNSLVFGTSDRVYEKLKDLEEGIQALMRELEDGSPRAGQILKQTYDKFDTNLRSDDALLKNYGLLSCFKKDLHKAETYLRVMKCRRFVESSCAF
Q: For B5, which “Effect of co-expressed free peptide on GH-GHR-dependent cell growth on selective medium” value [4] is on record?
A: block GH-GHR-dependent cell growth on selective medium
